These results are taken from patent US20200407433A1 (REMD BIOTHERAPEUTICS, published 2020).

One test concerns the target T1, Rodent CGRP (rodent (murine)).
T1 construct: also called murine CGRP
The test is described as follows: ELISA, rodent CGRP binding. (An ELISA detects its analyte on a solid surface through an enzyme-linked reagent.)

Test [1] deals with T2, human Calcitonin Gene-Related Peptide (CGRP) (human, not fully specified).
T2 peptide: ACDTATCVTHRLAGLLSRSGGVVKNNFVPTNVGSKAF
Kind of test: cell-based or functional assay.

Test [2] deals with T2, human Calcitonin Gene-Related Peptide …. Kind of test: SPR Biacore T200; antibody amine-coupled to chip, CGRP as analyte. As to the method:
The binding affinity between the chimeric IgG4 to antigen CGRP was determined using a Surface Plasmon Resonance (SPR) biosensor, Biacore T200 (GE Healthcare). 30B8G9B11 (“A3”) and chimeric IgG4 were each immobilized on the sensor chip through an amine coupling method. Antigen CGRP protein was used as analyte. The data of dissociation (kd) and association (kₐ) rate constants were obtained using Biacore T200 evaluation software. The equilibrium dissociation constants (KD) were calculated from the ratio of kd over kₐ.
(In general: Surface plasmon resonance follows binding to a sensor surface in real time, without labels.)

Test [3] shares this target. The test is described as follows: ELISA, human CGRP binding.
Test [4] has the same target. The test is described as follows: cell-based or functional assay.
Test [5] shares this target. Kind of test: SPR Biacore 8k; antibody amine-coupled to chip, CGRP as analyte. As to the method:
The recombinant IgGs secreted to the medium and were purified using protein A affinity chromatography. Evaluating from the SDS-PAGE, the purity of humanized IgGs were all over 90%. The affinities of purified antibodies binding to CGRP were determined using a Surface Plasmon Resonance (SPR) biosensor, Biacore 8k. Antibodies were immobilized on the sensor chip through amine coupling method. Antigen CGRP was used as the analyte. The data of dissociation (kd) and association (ka) rate constants were obtained using Biacore 8k evaluation software. The equilibrium dissociation constants (KD) were calculated from the ratio of kd over ka.

T1 sequence (Q99JA0 83-119): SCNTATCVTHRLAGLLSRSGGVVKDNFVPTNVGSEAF

B1: murine mAb 30B8G9B11 (antibody, mouse IgG2a, V domains shown)
VH: EVQLQQSGPELVKPGASVKISCKASGYTFTDYYMNWVKQSHGKSLEWIGDVNPNNGGTHYNQKFKGKATLTVDKSSSTAYMELRSLTSEDSAVYYCASITIVPVYFDFWGQGTTLTVSS
VL: DIVMTQSQKFMSTSVGDRVSVTCKASQNVGPNVAWYRQKPGQSPKALIYSASYRYSGVPDRFTGSGSGTDFTLTISNVQSEDLADYICQQYNYYPYTFGGGTKLEIK
notes: Murine IgG2a, kappa; also called A3; Murine A3
The EC50 is the concentration giving half of the maximal effect. In general, Kd refers to the equilibrium constant for the complex coming apart. As a reminder, the koff is the first-order rate constant of dissociation. As usually defined, the kon is the rate constant with which the complex forms. For the molecule B1, the EC50 with Rodent CGRP amounted to 296 pM. For the same molecule, the “SK-N-MC IC50 (pM)” value in test [1] stood at 152 pM. Further, in test [2], the Kd stood at 2.92 pM, the koff is 1.56e-05 s⁻¹ and the on-rate constant (kon) turned out to be 5.33e+06 M⁻¹ s⁻¹. For the same molecule, in test [3], the EC50 was 70 pM. In test [4], the “SK-N-MC CGRP IC50 (pM)” value was 152 pM.

B2: murine-human chimeric IgG4 derived from murine antibody A3 (antibody, V domains shown)
VH: EVQLQQSGPELVKPGASVKISCKASGYTFTDYYMNWVKQSHGKSLEWIGDVNPNNGGTHYNQKFKGKATLTVDKSSSTAYMELRSLTSEDSAVYYCASITIVPVYFDFWGQGTTLTVSS
VL: DIVMTQSQKFMSTSVGDRVSVTCKASQNVGPNVAWYRQKPGQSPKALIYSASYRYSGVPDRFTGSGSGTDFTLTISNVQSEDLADYICQQYNYYPYTFGGGTKLEIKR
notes: also called chimeric antibody
On to B2, for which the “SK-N-MC IC50 (pM)” value in test [1] amounted to 152 pM. Also, in test [2], the dissociation constant Kd came out at 2.4 pM, the koff is 1.51e-05 s⁻¹ and the association rate constant (kon) worked out at 6.28e+06 M⁻¹ s⁻¹. In test [5], the equilibrium dissociation constant (Kd) worked out at 3.53 pM, the koff turned out to be 1.19e-05 s⁻¹ and the on-rate (kon) was found to be 3.37e+06 M⁻¹ s⁻¹.

B3: murine mAb 6G5C8C4 (antibody, mouse IgG2a, V domains shown)
VH: EVQLQQSGPELVKPGASVKISCKASGYTFTDYYMNWVKQSHGKSLEWIGDINPNNGGTTYNQKFKGKATLTVDKSSTTAYMELRSLTSEDSAVYYCAVITIVPYYFDYWGQGTTLTVSS
VL: DIVMTQSQKFMSTSVGDRVSVTCKASQNVGSNVAWYQQKPGQSPKALIYSASFRYSRVPDRFSGSGSGTDFTLTISNVQSEDLADYFCQQYNSYPYTFGAGTKLELK
notes: Murine IgG2a, kappa; also called A1; 6G5C8C4 ("A1")
Turning to B3, the EC50 in the test with Rodent CGRP was 361 pM; in test [3] it was 100 pM. Further, the “SK-N-MC CGRP IC50 (pM)” value in test [4] worked out at 101 pM.

B4: murine mAb 24G7B10G2 (antibody, mouse IgG2a, V domains shown)
VH: EVQLLQSGPELMKPGTSVKISCKASGYTFTDYYMNWVKQSHGKSLEWIGDVNPNNGDTTYNQKFKGKATLTIDKSSSTAYMELRSLTSEDSAVYYCASITIVPLYFDFWGQGTTLAVSS
VL: DIVMTQSQKFMSTSVGDRVSVTCKASQNVGINVAWYQQKPGQSPKALLYSASYRYSGVPDRFTGSGSGTDFTLTISNVKSGDLAEYFCQQYNTYPYTFGGGTKLEIK
notes: Murine IgG2a, kappa; also called A2; 24G7B10G2 ("A2")
On to B4, for which the EC50 with Rodent CGRP was found to be 328 pM; in test [3] it was 80 pM. Besides, the “SK-N-MC CGRP IC50 (pM)” value in test [4] stood at 195 pM.

B5: REMD 128 (antibody, human IgG4 S228P, kappa, V domains shown)
VH: QVQLVQSGAEVVKPGASVKVSCKASGYTFTDYYMNWVKQAPGQGLEWIGDVNPNNGGTHYNQKFKGRVTLTVDTSISTAYMELSRLRSDDTAVYYCASITIVPVYFDFWGQGTLVTVSS
VL: DIQLTQSPSFLSASVGDRVTITCKASQNVGPNVAWYRQKPGKAPKALIYSASYRYSGVPSRFSGSGSGTEFTLTISSLQPEDFATYICQQYNYYPYTFGQGTKLEIKR
notes: Humanized full-length IgG (IgG4 constant region, kappa); also called IgG 10 (H3/L2); 10 (H3/L2)
Take B5: the “SK-N-MC IC50 (pM)” value in test [1] is 49.2 pM. In test [5], the dissociation constant (Kd) is 1.37 pM, the koff came to 5.79e-06 s⁻¹ and the kon amounted to 4.23e+06 M⁻¹ s⁻¹.

B6: REMD 128.2 (antibody, human IgG4 S228P, kappa, V domains shown)
VH: QVQLVQSGAEVVKPGASVKISCKASGYTFTDYYMNWVKQAPGQGLEWIGDVNPNNGGTHYNQKFKGRATLTVDTSISTAYMELSRLRSDDTAVYYCASITIVPVYFDFWGQGTLLTVSS
VL: DIQLTQSPSFLSTSVGDRVTITCKASQNVGPNVAWYRQKPGKSPKALIYSASYRYSGVPSRFSGSGSGTEFTLTISSLQPEDFATYICQQYNYYPYTFGQGTKLEIKR
notes: Humanized full-length IgG (IgG4 constant region, kappa); also called IgG 15 (H4/L3); 15 (H4/L3)
Regarding B6, the “SK-N-MC IC50 (pM)” value in test [1] came to 60.4 pM. Moreover, in test [5], the Kd was found to be 1.52 pM, the koff came to 7.57e-06 s⁻¹ and the on-rate constant (kon) is 4.97e+06 M⁻¹ s⁻¹.

B7: REMD 128.1 (antibody, human IgG4 S228P, kappa, V domains shown)
VH: QVQLVQSGAEVVKPGASVKVSCKASGYTFTDYYMNWVKQAPGQGLEWIGDVNPNNGGTHYNQKFKGRVTLTVDTSISTAYMELSRLRSDDTAVYYCASITIVPVYFDFWGQGTLVTVSS
VL: DIQLTQSPSFLSTSVGDRVTITCKASQNVGPNVAWYRQKPGKSPKALIYSASYRYSGVPSRFSGSGSGTEFTLTISSLQPEDFATYICQQYNYYPYTFGQGTKLEIKR
notes: Humanized full-length IgG (IgG4 constant region, kappa); also called IgG 11 (H3/L3); 11 (H3/L3)
Regarding B7, the “SK-N-MC IC50 (pM)” value in test [1] is 38.9 pM. Besides, in test [5], the dissociation constant (Kd) came out at 1.57 pM, the off-rate constant (koff) was 7.61e-06 s⁻¹ and the kon came to 4.86e+06 M⁻¹ s⁻¹.

B8: REMD 128.3 (antibody, human IgG4 S228P, kappa, V domains shown)
VH: QVQLVQSGAEVVKPGASVKISCKASGYTFTDYYMNWVKQAPGQGLEWIGDVNPNNGGTHYNQKFKGRATLTVDTSISTAYMELSRLRSDDTAVYYCASITIVPVYFDFWGQGTLLTVSS
VL: DIQLTQSPSFLSASVGDRVTITCKASQNVGPNVAWYRQKPGKAPKALIYSASYRYSGVPSRFSGSGSGTEFTLTISSLQPEDFATYICQQYNYYPYTFGQGTKLEIKR
notes: Humanized full-length IgG (IgG4 constant region, kappa); also called IgG 14 (H4/L2); 14 (H4/L2)
As to B8, in test [1], the “SK-N-MC IC50 (pM)” value is 59.8 pM. In test [5], the dissociation constant Kd was determined as 1.54 pM, the dissociation rate constant (koff) came out at 7.01e-06 s⁻¹ and the on-rate constant (kon) stood at 4.55e+06 M⁻¹ s⁻¹.
